The chains are these.
B1: PS567: PS372-homologous ClpS protein, SEQ ID NO: 81 (protein, listed as Planctomycetaceae bacterium)
chain: MADYEDAGEDALEDDFDHGTVTVAPQKPEPKKQSENKRQANRQPRYNVLLWDSEDHTFEYVEKMLRELFGHIKKQCQIIAEQVDQEGRAVVLTTTLEHAELKRDQIHAYGKDQLEGSKGSMWSTIEAVD
B2: PS565: PS372-homologous ClpS protein, SEQ ID NO: 79 (protein)
chain: MSEFDHEHSGDTSVADPIVTTKTAPKPQKHAENETETRRQPPYNVIILNDEEHTFDYVIELLCKVFRHSLATAQELTWRIHLTGRAVVLTTHKELAELKRDQVLAYGPDPRMSVSKGPLDCFIEPAPGG
modifications: Aquisphaera sp. JC650
B3: PS578: PS372-homologous ClpS protein, SEQ ID NO: 92 (protein, listed as Planctomycetes bacterium)
chain: MSGTVVESKPRNSTQLAPRWKVIVHDDPVTTFDFVLGVLRRVFAKPPGEARRITREAHDTGSALVDVLALEQAEFRRDQAHSLARAEGFPLTLTLEPAD
B4: PS577: PS372-homologous ClpS protein, SEQ ID NO: 91 (protein, listed as Tuwongella immobilis)
chain: MSASSSQPGTTTKPDLDIQPRLLPPFHVILENDEFHSMEFVIDTLRKVLGVSIERAYQLMMTAHESGQAIIWTGPKEVAELKYEQVIGFHEKRSDGRDLGPLGCRIEPAV
B5: PS573: PS372-homologous ClpS protein, SEQ ID NO: 87 (protein, listed as Leptospira fluminis)
chain: MSQTPVIEETTVKDPVKTGGPWKVVLWDDDEHTYDYVIEMLMEVCVMTMEQAFHHAVEVDTQKKTVVYSGEFEHAEHIQELILEYGPDPRMAVSKGSMSATLEKS
B6: PS568: PS372-homologous ClpS protein, SEQ ID NO: 82 (protein, listed as Dehalococcoidia bacterium)
chain: MTTPSLPTRETEVEERTEVEPERLYHLVLLDDDQHSYQYVIEMLASIFGYGSEKAWTLARIVDTEGRAILETASHAQCERHQSQIHAYGADSRIPTSVGSMSAVIEEAGTPPQT
B7: PS374: ClpS protein, SEQ ID NO: 7 (protein)
chain: MRWEDPLAAEPVTPGVAPVVEEETDAAVETPWRVILYDDDIHTFEEVILQLMKATGCTPEQGERHAWTVHTRGKDCVYQGDFFDCFRVQGVLREIQLVTEIEG
B8: Synechococcus elongatus ClpS1: ClpS protein, SEQ ID NO: 105 (protein, listed as Synechococcus elongatus)
chain: MAVETIQKPETTTKRKIAPRYRVLLHNDDFNPMEYVVMVLMQTVPSLTQPQAVDIMMEAHTNGTGLVITCDIEPAEFYCEQLKSHGLSSSIEPDD
B9: PS561: PS372-homologous ClpS protein, SEQ ID NO: 75 (protein)
chain: MAELQTAVVEPTTRPEQDEKQSQSRPKRQPRYNVILWDDPDHSYDYVIMMLKELFGHPRQRGHQMAEEVDTTGRVICLTTTMEHAELKRDQIHAYGSDEGITRCKGSMSASIEPVPE
modifications: Roseimaritima sp. JC651
B10: PS563: PS372-homologous ClpS protein, SEQ ID NO: 77 (protein, listed as Acidobacteria bacterium)
chain: MSSRSATAYPEVEDDTSDQLQPLYHVILLNDEDHTYDYVIEMLQKIFGFPESKAFSHAVEVDTKGTTILLTCDLEQAERKRDLIHSYGPDWRLPRSLGSMAAVVEPAAG
B11: PS562: PS372-homologous ClpS protein, SEQ ID NO: 76 (protein, listed as Rubripirellula amarantea)
chain: MSDQQSMVAEPEVVVHTQDEKKLEKQNKRKKQPRYNVVLWDDTDHSYDYVVLMMKQLFHHPIETGFQIAKQVDKGGKAICLTTTMEHAELKRDQIHAFGKDDLIARCTGSMSATIEPVPE
B12: PS570: PS372-homologous ClpS protein, SEQ ID NO: 84 (protein, listed as Leptospira congkakensis)
chain: MTGAGASQPSILEETEVRPRLSDGPWKVVLWDDDFHTYEYVIEMLMDVCQMPWEKAFQHAVEVDTRKKTIVFSGELEHAEFVHERILNYGPDPRMGSSKGSMTATLEQ
B13: PS571: PS372-homologous ClpS protein, SEQ ID NO: 85 (protein, listed as Leptospira meyeri)
chain: B12 chain with G3S, A4S, V17R, R18K, S73F, S97T, Q108K
B14: PS566: PS372-homologous ClpS protein, SEQ ID NO: 80 (protein, listed as Planctomycetaceae bacterium)
chain: MSSPSSLDDVQVSTSRAKPANETRTRKQPPYAVIVENDDHHTFLYVIEALMKVCGHAPEKGFVLAQQIHTQGKAMVWSGTLELAELKRDQLRGFGPDNYAPRPVTFPLGVTIEPLP
B15: atClpS1 C7S: ClpS protein, SEQ ID NO: 103 (protein)
chain: MIAEPISMQGEGDGEDGGTNRGTSVITRVKPKTKRPNLYRVLLLNDDYTPMEFVIHILERFFQKDREAATRIMLHVHQHGVGECGVFTYEVAETKVSQVMDFARQHQHPLQCVMEKK
B16: atClpS1 C7S, C84S, C112S: ClpS protein, SEQ ID NO: 104 (protein)
chain: B15 chain with C84S, C112S
B17: PS572: PS372-homologous ClpS protein, SEQ ID NO: 86 (protein, listed as Blastopirellula marina)
chain: MSSEELSLQTRPKRQPPFGVILHNDDLNSFDYVIDSIRKVFHYELEKCFQLTLEAHETGRSLLWTGTLEGAELKQELLLSCGPDPIMLDKGGLPLKVTLEELPQ
B18: PS564: PS372-homologous ClpS protein, SEQ ID NO: 78 (protein)
chain: MFEEVVSVAVAEPKTKKQSRTKPKRQPPYHVILWDDTDHTFDYVIKMMGELFRMPREKGYQLAKEVDTSGRAICMTTTLELAELKRDQIHAFGRDDASAHCKGSMSATIEPAEG
modifications: Planctomycetes bacterium Poly21
B19: PS569: PS372-homologous ClpS protein, SEQ ID NO: 83 (protein, listed as Planctomycetes bacterium)
chain: MYSKNQIKIYCSEDDKGQTATPLLEKKPKFAPLYHVILWDDNTHTYEYVIKLLMSLFRMTFEKAYQHTLEVDKKGRTICITTHLEKAELKQEQISNFGPDILMQNSKGPMSATIEPAN
B20: PS376: ClpS protein, SEQ ID NO: 9 (protein)
chain: MPTNDLDLLEKQDVKIERPKMYQVVMYNDDFTPFDFVVAVLMQFFNKGMDEATAIMMQVHMQGKGICGVFPKDIAETKATEVMKWAKVEQHPLRLQVEAQA
B21: PS574: PS372-homologous ClpS protein, SEQ ID NO: 88 (protein, listed as Gemmata obscuriglobus)
chain: MANATPTPDVVPEEETETRTRRQPPYAVVLHNDDTNTMDFVVTVLRKVFGYTVEKCVELMLEAHTQGKVAVWIGALEVAELKADQIKSFGPDPHVTKNGHPLGVTVEPAA
B22: PS375: ClpS protein, SEQ ID NO: 8 (protein)
chain: MEAEPETKVLASIPGVGTSEPFRVVLFNDEEHSFDEVIFQIIKAVRCSRAKAEALTMEVHNSGRSIVYTGPIEQCIRVSAVLEEIELRTEIQS
B23: PS575: PS372-homologous ClpS protein, SEQ ID NO: 89 (protein, listed as Leptospira kmetyi)
chain: MASTQTPDLNEITEESTKSTGGPWRVVLWDDNEHTYEYVIEMLMEICTMTVEKAFLHAVQVDQEKRTVVFSGEFEHAEHVQERILTYGADPRMSNSKGSMSATLEK
B24: PS576: PS372-homologous ClpS protein, SEQ ID NO: 90 (protein)
chain: B23 chain with M44V, T48M, Q63K, V69D, F74L, T86N, K106R
modifications: Leptospira interrogans
B25: atClpS2: Agrobacterium tumifaciens ClpS2, SEQ ID NO: 94 (protein, listed as Agrobacterium tumifaciens)
chain: MSDSPVDLKPKPKVKPKLERPKLYKVMLLNDDYTPREFVTVVLKAVFRMSEDTGRRVMMTAHRFGSAVVVVCERDIAETKAKEATDLGKEAGFPLMFTTEPEE
B26: atClpS2 C72S: ClpS protein, SEQ ID NO: 100 (protein)
chain: B25 chain with C72S
B27: atClpS2-V1 + C72S: ClpS protein, SEQ ID NO: 101 (protein)
chain: B25 chain with R36M, E37S, C72S

Data on 27 molecules can be found in patent US12065466B2, “Methods and compositions for protein sequencing” (Quantum-Si Incorporated, priority 2020, dated 2024).

Where a chain is given by its changes, count along the chain named. In names and notes the source's numbering stands.

The assay has as its system amino acid at a terminal position of a polypeptide. Nature of the assay: Amino acid binding preference of recognition proteins (Tables 1 and 2). Conditions: Table 1, ClpS proteins; amino acid identity at a terminal position of a polypeptide; inferred from literature and/or demonstrated by the inventors. The text has this:
It should be appreciated that these sequences and other examples described herein are meant to be non-limiting, and recognition molecules in accordance with the application can include any homologs, variants thereof, or fragments thereof minimally containing domains or subdomains responsible for peptide recognition.
Regarding B1, the “Binding Pref.” value was “I, L, V”.

In the case of B2, the “Binding Pref.” value is given as “I, L, V”. In the case of B3, the “Binding Pref.” value is listed as “I, L, V”. With B4 the entry was “I, L, V”; with B5, “I, L, V”.

As for B6, the “Binding Pref.” value is given as “I, L, V”. As for B7, the entry is “F, Y, W, L”; as for B8, “F, W, Y”. For B9, the “Binding Pref.” value is “I, L, V”. With B10 the entry was “I, L, V”; with B11, “I, L, V”. As to B12, the “Binding Pref.” value is “I, L, V”. With B13 the entry was “I, L, V”; with B14, “I, L, V”. With B15 the entry was “F, W, Y, L”.

As for B16, the “Binding Pref.” value is given as “F, W, Y, L”.

Turning to B17, the “Binding Pref.” value is given as “I, L, V”.

Take B18: the “Binding Pref.” value is “I, L, V”.

As to B19, the “Binding Pref.” value is listed as “I, L, V”.

As for B20, the “Binding Pref.” value is “F, W, L”. With B21 the entry was “I, L, V”; with B22, “F, L”.

On to B23, for which the “Binding Pref.” value was “I, L, V”.

With B24, the “Binding Pref.” value is recorded as “I, L, V”. With B25 the entry was “F, W, Y”; with B26, “F, W, Y”.

Regarding B27, the “Binding Pref.” value is “F, W, Y”.
